Reference: patent US20140234868A1, “USE FOR GLYCOLIPOPROTEIN GINTONIN, ISOLATED AND IDENTIFIED FROM GINSENG, AS A NATURAL MEDICAL-PLANT DERIVED LIGAND” (KONKUK UNIVERSITY INDUSTRIAL COOPERATION CORP., priority 2011, published 2014)

T1: LPA3 receptor (Homo sapiens, UniProt Q9UBY5)
T1 construct: host or cells: B103 rat neuroblastoma cells
T1 sequence (Q9UBY5 1-353): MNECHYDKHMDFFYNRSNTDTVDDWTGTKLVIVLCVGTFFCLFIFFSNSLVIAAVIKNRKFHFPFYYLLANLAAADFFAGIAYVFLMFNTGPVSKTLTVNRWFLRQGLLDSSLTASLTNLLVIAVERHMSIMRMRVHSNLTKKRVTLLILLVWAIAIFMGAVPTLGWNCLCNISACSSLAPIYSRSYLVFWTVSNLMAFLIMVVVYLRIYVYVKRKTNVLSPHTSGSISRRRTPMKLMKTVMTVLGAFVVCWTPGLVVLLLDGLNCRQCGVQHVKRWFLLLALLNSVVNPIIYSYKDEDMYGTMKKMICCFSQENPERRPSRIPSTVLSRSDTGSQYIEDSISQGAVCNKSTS


Assays:
LPA3 receptor = molecular target: T1, LPA3 receptor; experiment: Intracellular free Ca2+ (Fura-2AM) in LPA3-expressing B103 cells; format: cell-based
Text: (§1) LPA family receptors are endogenous to cells of most organs. B103 rat neuroblastoma cells, known as LPA receptor-null cells (Valentine et al., Biochim Biophys Acta 1780. 597-605) were transiently transfected with a plasmid (vector) carrying one of genes coding for LPA1(edg-2), LPA2(edg-4), LPA3(edg-7), LPA4, LPA5 and LPA6 receptors or a plasmid carrying none of them (empty vector). Two or three days after transfection, the cells are suspended, and made permeable. Then, the permeable cells are treated with Fura-2AM, a fluorescent dye binding to calcium, and then with gintonin, followed by spectrofluorephotometry to examine whether gintonin induces an increase in intracellular free Ca^2+ level.
(§2) (1) preparing large quantities of plasmids carrying respective LPA family receptor genes and an empty plasmid carrying none of them through amplification and purification (maxi-preparation); (2) verifying the expression of LPA receptors wherein B103 cells are transfected with haematoglutin (HA)-tagged LPA receptors, and then subjected to Western blotting analysis using an anti-HA primary antibody and a horseradish peroxidase (HRP)-conjugated secondary antibody to develop a color; (3) verifying the expression of LPA receptors wherein B1-3 cells are transfected with haematoglutin (HA)-tagged LPA receptors, and then subjected to confocal laser microscopy using an anti-HA antibody and a fluorescence dye Cy3-conjugated secondary antibody; (4) transfecting the empty plasmid and each of the plasmids carrying LPA family receptor genes into B103 cells; (5) treating the transfected B103 cells with trypsin (0.05% trypsin with EDTA, w/v) 2-3 days post-transfection, to give a cell suspension; (6) culturing the suspended B103 cells with Fura-2AM (2.5 μM); and (7) treating the suspended B103 cells with gintonin and quantifying a change in intracellular free Ca^2+ level in a cuvette by spectrofluorephotometry using Fura-2AM.
(§3) Human LPA (lysophosphatidic acid) receptor subtypes, orphan GPCRs (G protein coupled receptors) and plasmids carrying GPCRs were purchased from Missouri S&T resource Center (www.cDNA.org).
(§4) The transient transfection of LPA receptor subtypes was carried out with the aid of Lipofectamine 2000 of Invitrogen. A plasmid (10.8 μg) carrying each LPA receptor (LPA1, LPA2, LPA3, LPA4, LPA5, and LPA6) was transfected into B103 cells grown in 10-cm dishes, and incubated for 2 days prior for use in experiments.
In this Example, gintonin, or ginsenoside Rb1 or Rg1 was examined for its ability to induce a transient increase of [Ca^2+]i in Fura-2AM-loaded B103 cells which were transfected with LPA receptors and in Fura-2AM-loaded B103 cells which were not transfected with LPA receptors. To this end, B103 cells (2˜4×10^6/ml) pre-treated with Fura-2AM were suspended in a 1.5 mM Ca^2+-containing buffer or Ca^2+-free buffer, and incubated 37° C. for 30 min, followed by analyzing intracellular calcium levels in the B103 cells in the presence of gintonin or ginsenosides.
Briefly, B103 cells (1˜2×10^6/ml) were mixed with 2.5 μM Fura 2-AM in a Ca^2+ buffer (pH 7.4) containing NaCl 120 mM, KCl 5 mM, MgCl2 1 mM, CaCl2 1.5 mM, glucose 10 mM, and HEPES 25 mM, and a Ca^2+ free buffer (pH 7.4) containing NaCl 120 mM, KCl 5 mM, MgCl2 1 mM, EGTA 0.2 mM, glucose 10 mM, and HEPES 25 mM at 37° C. for 30 min in water bath with shaking according to the Jørgensen method, and washed three times with Ca^2+ buffer or Ca^2+ free buffer to remove excess Fura-2AM.
[Ca^2+]i was estimated in Fura 2AM-loaded cells in suspension using an RF-5300PC intracellular ion measurement system (Shimadzu Corporation, Japan).
Briefly, Fura 2-AM loaded cells were diluted with an experimental medium to a final density of 2˜4×10^6 cells/mL, and transferred to polystyrene cuvettes (Elkay Ultra-VU). The cells were stirred using Teflon-coated magnets, and the cuvette housing was thermostatically controlled at 37° C. The excitation wavelengths were alternated between 340 and 380 nm under computer control. […]

endogenous CaCC = experiment: Endogenous Ca2+-activated channel (CaCC) activation in Xenopus oocytes; format: cell-based, Xenopus laevis
LPA1 receptor = LPA1 receptor (Homo sapiens, UniProt Q92633); experiment: Intracellular free Ca2+ (Fura-2AM) in LPA1-expressing B103 cells; format: cell-based; parameters: host or cells: B103 rat neuroblastoma cells
Chain of LPA1 receptor (Q92633 whole entry): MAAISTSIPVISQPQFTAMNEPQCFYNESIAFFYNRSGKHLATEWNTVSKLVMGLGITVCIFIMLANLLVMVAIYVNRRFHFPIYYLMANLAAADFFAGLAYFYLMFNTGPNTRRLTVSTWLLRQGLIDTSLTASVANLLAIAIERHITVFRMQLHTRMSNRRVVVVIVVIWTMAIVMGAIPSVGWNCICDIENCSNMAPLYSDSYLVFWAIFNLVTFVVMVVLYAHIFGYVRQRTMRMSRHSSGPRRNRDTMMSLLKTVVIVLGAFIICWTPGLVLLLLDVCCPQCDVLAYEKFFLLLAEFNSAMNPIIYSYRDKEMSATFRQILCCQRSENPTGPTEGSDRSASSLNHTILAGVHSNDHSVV
Text: as §1, §2, §3, §4
In this Example, gintonin, or ginsenoside Rb1 or Rg1 was examined for its ability to induce a transient increase of [Ca^2+]i in Fura-2AM-loaded B103 cells which were transfected with LPA receptors and in Fura-2AM-loaded B103 cells which were not transfected with LPA receptors. […]

Molecule | effect on gintonin-induced intracellular calcium increase (LPA3 receptor; LPA3-expressing cells treated with antagonist) | effect on gintonin-induced CaCC activation (endogenous CaCC; Kil6425 10 μM, U73122 1 μM, 2-APB 100 μM, BAPTA 100 μM 3 h) | effect on gintonin-induced intracellular calcium increase (LPA1 receptor; LPA1-expressing cells treated with antagonist) | transient increase of [Ca2+]i when extracellular Ca2+ was depleted (LPA3 receptor; Ca2+-free buffer containing 0.2 mM EGTA, LPA3-expressing cells) | EC50 (LPA3 receptor; LPA3 receptor, B103 cells, read-out: EC50, LPA receptor-mediated intracellular calcium increase) | increase in intracellular calcium level (LPA3 receptor; gintonin 1 μg/ml, LPA3-expressing B103 cells) | increase of intracellular calcium level in co-existence with ginsenosides (LPA3 receptor; gintonin in the presence of ginsenoside Rb1 or Rg1) | CaCC activation (endogenous CaCC; gintonin 1 μg/ml, NMDA receptor-expressing Xenopus oocytes) | transient increase of [Ca2+]i when extracellular Ca2+ was depleted (LPA1 receptor; Ca2+-free buffer containing 0.2 mM EGTA, LPA1-expressing cells) | EC50 (LPA1 receptor; LPA1 receptor, B103 cells, read-out: EC50, LPA receptor-mediated intracellular calcium increase) | increase in intracellular calcium level (LPA1 receptor; gintonin 1 μg/ml, LPA1-expressing B103 cells)
Cc1noc(-c2ccc(CSCCC(=O)O)cc2)c1NC(=O)OC(C)c1ccccc1Cl (centres unmarked) [Kil6425] | did not increase in intracellular calcium level even in the presence of gintonin | reduced gintonin-induced CaCC activation | did not increase in intracellular calcium level even in the presence of gintonin |  |  |  |  |  |  |  | 
gintonin: ginseng-derived glycolipoprotein; structural protein of ginseng major latex-like protein (MLP151) and ribonuclease-like storage proteins; crude gintonin used in tests (protein) chain 1: MGLTGKLICQTGIKSDGDVFHELFGTRPHHVPNITPANIQGCDLHEGEFGKVGSVVIWNYSIDGNAMIAKEEIVAIDEEDKSVTFKVVEGHLFEEFKSIVFSVHVDTKGEDNLVTWSIDYEKLNESVKDPTSYLDFLLSVTRDIEAHHLPK chain 2: RSDYPWAMFALRLQWPAGFCEVNNACDTKSLLNTFTIHGLYPYNAKGTPALYCDGTAFDVNSVSDFLAEMHLAWPSHETNTEDIQFWEHEWKKHGRCSEALLKQTDYFRTALAFRKAFDIVGLLNQEGIYPNNDLYRPKMIKEAIKKHLNAVPEIDFTKNENSEYVLTDINVCVNQQATRFVDCPTDDATDDYRLKFVRLPSKMKFADPRTNSII |  |  |  | at a greatly lowered level | 0.12 ± 0.01 nM | 206.5 ± 11.2 µM | induce an increase in intracellular calcium level by activating LPA receptors in spite of co-existence with the ginsenosides | increases CaCC | at a greatly lowered level | 0.1 ± 0.02 nM | 185.9 ± 12.8 µM
